Reference: publication PMC6175958, “Formation of the β-barrel assembly machinery complex in lipid bilayers as seen by solid-state NMR” (Nature Communications, 2018)

Molecular target: T1, BamCDE complex (E. coli, UniProt P0A903 25-344; P0AC02 20-245; P0A937 20-113)
T1 construct: BamC, lipoprotein of the E. coli BAM complex; BamD, lipoprotein of the E. coli BAM complex; BamE, lipoprotein of the E. coli BAM complex; Unlabelled; also called BamCDE sub-complex; BamCDE subcomplex; copies: + +
Test: SEC; equimolar combination of the detergent solubilized proteins, mild rotation 1 h at 4 °C, then gel filtration on HiLoad 26/600 Superdex 200 pg
Details: both partners purified

B1: BamAP4P5 (D264–W810) (domain or fragment)
chain: not shown
notes: BamA of E. coli, POTRA domains P4 and P5 plus the transmembrane β-barrel, residues D264–W810 (547 residues); Isotope labelled (AVLTI 13C/15N, or 13C-Ile, 13C-Phe and 15N-Gly) for the ssNMR samples; also called BamP4P5
binding result: binds
